Legend:
RPS24 = biological target: T1, RPS24 (Homo sapiens, UniProt P62847); assay: Flag IP-MS of i53/i53-DM baits: prey RPS24; format: binding; conditions: 293T Flp-In/T-Rex extracts, LC-MS/MS, one column per replicate IP
T1 construct: endogenous in cells; host or cells: HEK293 Flp-In/T-REx
Description: (§1) Following immunoprecipitation of Flag-tagged i53 and i-53-DM from HEK293 Flp-In/T-REx cells, peptides were identified using LC-MS/MS. Proteins were digested in solution with trypsin (Sigma, T7575-1KT) and dried to completeness. For LC-MS/MS analysis, peptides were reconstituted in 5% formic acid and loaded onto a 12-15 cm fused silica column with pulled tip packed in-house with 3.5 μm Zorbax C18 (Agilent Technologies, Calif., USA).
(§2) i53 and i53-DM precipitates were analyzed using an LTQ (Thermo Scientific) coupled to an Agilent 1100 Series HPLC (Agilent Technologies). Peptides were eluted from the column using a 90 min period cycle with a linear gradient from 0% to 40% ACN in 0.1% formic acid. Tandem MS spectra were acquired in a data-dependent mode for the top 5 (LTQ) most abundant ions using collision-induced dissociation. Acquired spectra were searched against the human Refseq_V53 database using Mascot (Matrix Science).
(§3) 293T Flp-In/T-Rex cell lines were generated that expressed Flag-tagged i53 or i53-DM under the control of a tetracycline-inducible promoter as previously described. Nine IP-MS experiments were analyzed (3 biological replicate IPs each for control i53- and i53-DM expressing cell lines). The interacting proteins were identified by MASCOT to identify high-confidence interactors for i53. […]

CAPZA2 = biological target: T2, CAPZA2 (Homo sapiens, UniProt P47755); assay: Flag IP-MS of i53/i53-DM baits: prey CAPZA2; format: binding; conditions: 293T Flp-In/T-Rex extracts, LC-MS/MS, one column per replicate IP
T2 construct: endogenous in cells; host or cells: HEK293 Flp-In/T-REx
Description: as §1, §2, §3

[1] = system: BFP transgene in 293T cells; assay: ssODN-based BFP-to-GFP HR assay; format: cell-based; conditions: AAV-DJ transduced 293T cells, Cas9 RNP, 4 d, versus i53-DM
From the text: FIG. 11. 53BP1 inhibition by i53 stimulates ssODN-mediated homologous recombination. FIG. 11A, Schematic of the BFP-to-GFP conversion assay. Cells carrying a stably integrated BFP transgene are transfected with Cas9 ribonucleoproteins (RNPs) programmed with a gRNA against the BFP coding sequence along with an ssODN that converts 3 nucleotides of BFP into those that produce a GFP protein upon successful HR-mediated repair. FIG. 11B-C, 293T cells that were first transduced with AAV-DJ1 vectors coding for i53-DM or i53 with the BFP transgene were nucleofected with Cas9 RNPs and optimal (b) and suboptimal (c) ssODN repair donors that convert BFP to GFP. 4 d after nucleofection, GFP fluorescence was monitored by flow cytometry. […] 3 d post-nucleofection, genomic DNA was isolated and the presence of the Pcil restriction fragment length polymorphism (RFLP) was determined by restriction digest on PCR-amplified genomic DNA. […]
The BFP-to-GFP assay was performed essentially as described Richardson CD et al, Nat Biotechnol. […] After 4 days, BFP and GFP fluorescence were measured by flow cytometry on a BD Fortessa, and analyzed with FlowJo v10 software. […]

[2] = system: γ-H2AX focus formation in U2OS cells; assay: Ionizing radiation focus formation, γ-H2AX (immunofluorescence); format: cell-based; conditions: transfected U2OS cells, 10 Gy, 1 h post-irradiation
Description: FIG. 3. The i53 protein inhibits 53BP1. FIG. 3A-B, U2OS cells were transfected with vectors expressing i53, its 53BP1-binding deficient mutant (DM) or an empty vector (EV) control. Cells were then X-irradiated with a 10 Gy dose and processed for immunofluorescence with the indicated antibodies 1 h post-irradiation (IR). DAPI staining (not shown) was used to delineate the outline (dashed lines) of the cell nuclei. The region in the magnified inset is indicated with a square. Quantitation of the experiment is shown in panel (a) and data is indicated as the mean±s.e.m (N=3), whereas in (b) representative micrographs are shown. Arrowheads indicate Flag-positive cells. FIG. 3C, Parental or 53BP1ΔU2OS cells transfected with vectors expressing i53, the DM mutant or an empty vector (EV) control were irradiated (10 Gy) 1 h before being processed for immunofluorescence. Cell cycle stage was assessed by Cyclin A staining. The data is presented as the mean±s.e.m.; N=3. FIG. 3D, Immunoprecipitation (IP) of Flag-tagged proteins from extracts prepared from 293T cells transfected with vectors expressing Flag-i53 or the i53-DM mutant. Proteins were separated by SDS-PAGE and immunoblotted (IB) for Flag and 53BP1. […]

| Substance | Total peptides, RPS24 (RPS24) | Total peptides, CAPZA2 (CAPZA2) | Stimulation of HDR by ssODNs, BFP-to-GFP conversion [1] | γ-H2AX focus formation [2] |
| --- | --- | --- | --- | --- |
| i53-DM: 53BP1-binding deficient mutant of i53 (P69L, L70V) | 4 | – | – | – |
| i53: UbvG08 with C-terminal di-glycine removed and I44A mutation; genetically encoded inhibitor of 53BP1 | – | 7 | 1.3-1.4 fold | did not impact |
